Data: patent US20180371066A1 (C2N DIAGNOSTICS, published 2018)

Columns and labels:
[1] = biological target: T1, recombinant human Tau-412 protein (human, UniProt P10636-7 1-412); test: SPR Biacore T200, Protein A capture, mean of the Chimeric runs
T1 construct: Analyte of the SPR study; also called human tau (1N4R, 412 amino acids)
Protocol: (§1) Kinetic data was obtained at a flow rate of 40 μL/min to minimize any potential mass transfer effects. Two repeats of the blank (no antigen) and the 2.5 nM concentration of the analyte were programmed into the kinetic run in order to check the stability of both the surface and analyte over the kinetic cycles. For the initial kinetic runs, 2-fold dilutions of Tau-412 from 40 nM to 0.156 nM were run. For kinetic analysis and on subsequent runs, an analyte range of 20 nM to 0.625 nM was selected. This range covered multiple analyte concentrations both above and below the reported KD.
(§2) The association phase was monitored for 500 seconds to allow some of the higher concentrations of analyte to reach steady state. In order to observe a sufficient signal decrease (>10%) during the dissociation phase of the kinetic cycle, dissociation was measured for 1200 seconds. As discussed in Section 5, the Fcs were allowed to stabilize for 600 seconds after each regeneration step. The signal from the reference channel Fc1 was subtracted from that of Fc2, Fc3 and Fc4.
(§3) The kinetic parameters for the interaction of Tau-412 with the 7 mAbs as measured using the Protein A capture system on the Biacore T200 are shown in Table F-2. To correct for differences in the capture level of the antibody between each binding cycle, a local Rₘₐₓ parameter was used in the 1-to-1 binding model. Kinetic analysis was performed in three independent runs using fresh preparations of Tau-412 and antibody. Run 1 and runs 2+3 used different vials of the antigen Tau-412; therefore the reported errors associated with the mean response probably represent variation in preparation of the analyte and differences in assay set-up and run. From run 1 to runs 2+3, the amount of antibody injected was adjusted to try to get closer to the target 300 RU capture levels.

[2] = biological target: T1, recombinant human Tau-412 protein; test: SPR Biacore T200, mAb captured on Protein A, Tau-412 analyte, 1-to-1 model, chip A11/1
Protocol: as §1, §2, §3
Target sequence in this assay (P10636 other isoform, or with tags, fused parts or gaps limits assumed): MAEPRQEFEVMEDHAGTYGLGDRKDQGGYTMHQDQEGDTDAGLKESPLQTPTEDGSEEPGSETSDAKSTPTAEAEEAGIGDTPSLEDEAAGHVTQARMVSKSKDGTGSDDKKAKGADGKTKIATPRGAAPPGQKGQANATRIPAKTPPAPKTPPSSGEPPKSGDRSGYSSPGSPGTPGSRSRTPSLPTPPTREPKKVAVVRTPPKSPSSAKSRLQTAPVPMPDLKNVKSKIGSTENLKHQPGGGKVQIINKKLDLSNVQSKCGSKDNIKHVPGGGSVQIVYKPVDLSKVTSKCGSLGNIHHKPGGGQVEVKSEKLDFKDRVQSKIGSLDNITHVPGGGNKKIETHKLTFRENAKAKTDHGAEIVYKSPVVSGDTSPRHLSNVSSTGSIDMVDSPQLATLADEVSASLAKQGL

[3] = biological target: T1, recombinant human Tau-412 protein; test: SPR Biacore T200, mAb captured on Protein A, Tau-412 analyte, 1-to-1 model, chip A11/2
Protocol: as §1, §2, §3

[4] = biological target: T1, recombinant human Tau-412 protein; test: SPR Biacore T200, mAb captured on Protein A, Tau-412 analyte, 1-to-1 model, chip A11/3
Protocol: as §1, §2, §3

human tau [5] = biological target: T2, human tau (human, UniProt P10636 2-60); test: competition ELISA on plate-coated human tau against biotinylated HJ8.5; IC50 normalised to chimeric HJ8.5 (reference row); column External
T2 construct: also called soluble human tau; human tau protein

human tau [6] = biological target: T2, human tau; test: competition ELISA on plate-coated human tau against biotinylated HJ8.5; IC50 normalised to chimeric HJ8.5 (reference row); column C2N Run 1
human tau [7] = biological target: T2, human tau; test: competition ELISA on plate-coated human tau against biotinylated HJ8.5; IC50 normalised to chimeric HJ8.5 (reference row); column C2N Run 2
[8] = biological target: T3, first 32 amino acids of human tau, expressed on yeast (human, UniProt P10636 1-32); test: yeast display, immunofluorescence
T3 construct: range 1-32; Yeast display scaffold not described
T3 chain (looked up): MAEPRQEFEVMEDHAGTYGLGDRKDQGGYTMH
Protocol: The epitope was mapped using yeast display. For this method, various peptides covering the sequence of human tau were expressed using by yeast. Binding of the HJ8.5 antibody to yeast in culture was measured by immunofluorescence. Binding to yeast, expressing variants of tau that included the first 34 amino acids was observed, but no binding, if the yeast only expressed the first 32 amino acids of tau.

PEP_2875804 = biological target: T4, PEP_2875804; test: peptide array of 15-mers of human tau probed with the antibody; label LIN
T4 peptide: AGTYGLGDRKDQGGY

PEP_2875806 = biological target: T5, PEP_2875806; test: as above
T5 peptide: GTYGLGDRKDQGGYT

PEP_2875808 = biological target: T6, PEP_2875808; test: as above
T6 peptide: TYGLGDRKDQGGYTM

PEP_2875810 = biological target: T7, PEP_2875810; test: as above
T7 peptide: YGLGDRKDQGGYTMH

PEP_2875812 = biological target: T8, PEP_2875812; test: as above
T8 peptide: GLGDRKDQGGYTMHQ

PEP_2875814 = biological target: T9, PEP_2875814; test: as above
T9 peptide: LGDRKDQGGYTMHQD

PEP_2875816 = biological target: T10, PEP_2875816; test: as above
T10 peptide: GDRKDQGGYTMHQDQ

PEP_2875818 = biological target: T11, PEP_2875818; test: as above
T11 peptide: DRKDQGGYTMHQDQE

PEP_2875820 = biological target: T12, PEP_2875820; test: as above
T12 peptide: RKDQGGYTMHQDQEG

PEP_2875822 = biological target: T13, PEP_2875822; test: as above
T13 peptide: KDQGGYTMHQDQEGD

PEP_2875824 = biological target: T14, PEP_2875824; test: as above
T14 peptide: DQGGYTMHQDQEGDT

PEP_2875826 = biological target: T15, PEP_2875826; test: as above
T15 peptide: QGGYTMHQDQEGDTD

rhesus monkey tau = biological target: T16, rhesus monkey tau (rhesus monkey, UniProt P57786 2-60); test: direct ELISA on 96-well plates coated with tau at varied concentration; OD 650nm
T16 construct: also called rhesus tau
T16 sequence: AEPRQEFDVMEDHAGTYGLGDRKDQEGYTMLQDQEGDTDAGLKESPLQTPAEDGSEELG
Protocol: FIG. 10 illustrates the binding results for different anti human tau antibodies to either human or rhesus monkey tau. Murine anti human tau antibodies HJ8.5 and HJ8.7 alongside humanized variant VH1/VK2 (also referred to as C₂N-8E12) were tested. […] In order to determine whether these amino acid difference between the two species of tau, impacts the ability of antibodies HJ8.5/C₂N-8E12 to bind the following experiment was performed. Binding of C₂N-8E12, HJ8.5 (murine precursor of C₂N-8E12), and HJ8.7 (murine anti-human tau antibody that binds to an epitope of tau where the human and rhesus amino acid sequence is 100% conserved) to human and rhesus tau by coating 96 well ELISA plates with either human or rhesus tau at various concentrations was measured. […] As expected, HJ8.7 binds to both human and rhesus tau.

PEP_2875809 = biological target: T17, PEP_2875809; test: peptide array of 15-mers of human tau probed with the antibody; label LIN.AA (double alanine)
T17 peptide: TYGLGDRKDAAGYTM

PEP_2875811 = biological target: T18, PEP_2875811; test: as above
T18 peptide: YGLGDRKDQAAYTMH

PEP_2875817 = biological target: T19, PEP_2875817; test: as above
T19 peptide: GDRKDQGGYAAHQDQ

PEP_2875819 = biological target: T20, PEP_2875819; test: as above
T20 peptide: DRKDQGGYTAAQDQE

PEP_2875821 = biological target: T21, PEP_2875821; test: as above
T21 peptide: RKDQGGYTMAADQEG

PEP_2875823 = biological target: T22, PEP_2875823; test: as above
T22 peptide: KDQGGYTMHAAQEGD

PEP_2875825 = biological target: T23, PEP_2875825; test: as above
T23 peptide: DQGGYTMHQAAEGDT

PEP_2875827 = biological target: T24, PEP_2875827; test: as above
T24 peptide: QGGYTMHQDAAGDTD

human tau [9] = biological target: T2, human tau; test: competition ELISA on plate-coated human tau against biotinylated HJ8.5; IC50 normalised to chimeric HJ8.5; column External
human tau [10] = biological target: T2, human tau; test: competition ELISA on plate-coated human tau against biotinylated HJ8.5; IC50 normalised to chimeric HJ8.5; column C2N Run 1
human tau [11] = biological target: T2, human tau; test: competition ELISA on plate-coated human tau against biotinylated HJ8.5; IC50 normalised to chimeric HJ8.5; column C2N Run 2

T2 sequence (P10636 2-60 limits assumed): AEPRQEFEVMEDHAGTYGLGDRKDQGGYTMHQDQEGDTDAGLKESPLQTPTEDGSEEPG

B1: chimeric HJ8.5 monoclonal antibody (antibody, V domains shown)
VH: EVKVEESGGGLVQPGGSMKLSCVVSGFTFSNYWVNWVRQSPEKGLEWVAQIRLKSDNYATHYEESVKGRFTISRDDSKSSVYLQMNNLRAEDSGIYYCTNWEDYWGQGTTLTVSS
VL: DIVLTQSPASLAVSLGQRATISCRASQSVSTSRYSYIHWYQQKPGQPPKLLIKYASNLESGVPARFSGSGSGTDFTLNIHPLEEEDAATYYCHHSWEIPLTFGAGTKLELK
notes: also called chimera; chimeric antibody
With B1 the Kd [1] was 1.99 nM, the koff [1] was 0.00143 s⁻¹ and the kon [1] was 721000 M⁻¹ s⁻¹. It also gave a Kd [2] of 2.23 nM, a koff [2] of 0.0016 s⁻¹ and a kon [2] of 718000 M⁻¹ s⁻¹. The Kd [3] was 1.79 nM, the koff [3] was 0.0013 s⁻¹ and the kon [3] was 722000 M⁻¹ s⁻¹. It also gave a Kd [4] of 1.94 nM, a koff [4] of 0.0014 s⁻¹ and a kon [4] of 723000 M⁻¹ s⁻¹. For the same binder, the “IC50 (Relative to Chimera)” value (human tau [5]) was 1 relative to Chimera, the “IC50 (Relative to Chimera)” value (human tau [6]) was 1 relative to Chimera and the “IC50 (Relative to Chimera)” value (human tau [7]) was 1 relative to Chimera.

B2: murine anti-tau antibody HJ8.5 (antibody, V domains shown)
VH: EVKVEESGGGLVQPGGSMKLSCVVSGFTFSNYWVNWVRQSPEKGLEWVAQIRLKSDNYATHYEESVKGRFTISRDDSKSSVYLQMNNLRAEDSGIYYCTNWEDYWGQGTTLTVSS
VL: DIVLTQSPASLAVSLGQRATISCRASQSVSTSRYSYIHWYQQKPGQPPKLLIKYASNLESGVPARFSGSGSGTDFTLNIHPLEEEDAATYYCHHSWEIPLTFGAGTKLELK
notes: Murine monoclonal antibody; also called parent antibody; murine parent
For B2, the binding result [8] was “no binding”, the “Binding Signal” value (PEP_2875804) was 427 and the “Binding Signal” value (PEP_2875806) was 2640. For the same binder, the “Binding Signal” value (PEP_2875808) was 2640, the “Binding Signal” value (PEP_2875810) was 2840 and the “Binding Signal” value (PEP_2875812) was 2820. The “Binding Signal” value (PEP_2875814) was 2840, the “Binding Signal” value (PEP_2875816) was 2650 and the “Binding Signal” value (PEP_2875818) was 2690. The “Binding Signal” value (PEP_2875820) was 2700, the “Binding Signal” value (PEP_2875822) was 2700 and the “Binding Signal” value (PEP_2875824) was 2680. For the same binder, the “Binding Signal” value (PEP_2875826) was 399, the binding result (rhesus monkey tau) was “no binding” and the “Binding Signal” value (PEP_2875809) was 2810. The “Binding Signal” value (PEP_2875811) was 1780, the “Binding Signal” value (PEP_2875817) was 2640 and the “Binding Signal” value (PEP_2875819) was 2700. For the same binder, the “Binding Signal” value (PEP_2875821) was 2710, the “Binding Signal” value (PEP_2875823) was 2710 and the “Binding Signal” value (PEP_2875825) was 2710. The “Binding Signal” value (PEP_2875827) was 427, the “IC50 (Relative to Chimera)” value (human tau [9]) was 1.07 relative to Chimera and the “IC50 (Relative to Chimera)” value (human tau [10]) was 0.79 relative to Chimera. For the same binder, the “IC50 (Relative to Chimera)” value (human tau [11]) was 0.99 relative to Chimera.
